Measurements published in publication PMC8257531.

Columns and labels:
[1] = fluorescence imaging, SK-RC-39 cells, ER/Golgi markers; details: glycan lost; control: wild-type CNNM3-mCherry
[2] = co-localisation with ARL15-mClover3, SK-RC-39 cells; details: glycan lost; control: wild-type CNNM3-mCherry

B1: CNNM3: N73A (protein)
parent chain: MAAAVAAAGRLGWLFAALCLGNAAGEAAPGPRVLGFCLEEDGAAGAGWVRGGAARDTPDATFLLRLFGPGFANSSWSWVAPEGAGCREEAASPAGEWRALLRLRLRAEAVRPHSALLAVRVEPGGGAAEEAAPPWALGLGAAGLLALAALARGLQLSALALAPAEVQVLRESGSEAERAAARRLEPARRWAGCALGALLLLASLAQAALAVLLYRAAGQRAVPAVLGSAGLVFLVGEVVPAAVSGRWTLALAPRALGLSRLAVLLTLPVALPVGQLLELAARPGRLRERVLELARGGGDPYSDLSKGVLRCRTVEDVLTPLEDCFMLDASTVLDFGVLASIMQSGHTRIPVYEEERSNIVDMLYLKDLAFVDPEDCTPLSTITRFYNHPLHFVFNDTKLDAVLEEFKRGKSHLAIVQKVNNEGEGDPFYEVLGLVTLEDVIEEIIRSEILDESEDYRDTVVKRKPASLMAPLKRKEEFSLFKVSDDEYKVTISPQLLLATQRFLSREVDVFSPLRISEKVLLHLLKHPSVNQEVRFDESNRLATHHYLYQRSQPVDYFILILQGRVEVEIGKEGLKFENGAFTYYGVSALTVPSSVHQSPVSSLQPIRHDLQPDPGDGTHSSAYCPDYTVRALSDLQLIKVTRLQYLNALLATRAQNLPQSPENTDLQVIPGSQTRLLGEKTTTAAGSSHSRPGVPVEGSPGRNPGV
With B1 the localisation_or_trafficking [1] was “abolishes” and the localisation_or_trafficking [2] was “decreases”.
